This is an account of results in patent US5998583, “BH3 interacting domain death agonist” (Washington University, dated 1999).

The target in test [1] is human BCL-2 (in FL5.12-Bcl-2 cells) (human, UniProt P10415). Kind of test: In Vitro and In Vivo BCL-2 Binding (summary: GST pull-down and anti-BID immunoprecipitation with anti-BCL-2 blot).
Test [2] concerns the target BAX (in FL5.12-Bcl-2 cells) (murine, UniProt Q07813). In words: In Vitro and In Vivo BAX Binding (summary: GST pull-down and anti-BID immunoprecipitation with anti-BAX blot).

Substitutions are numbered along the chain they refer to. Names and notes keep the numbering of the source.

B1: BIDmIII-1 (M97A,D98A) (other)
chain: MDSEVSNGSGLGAKHITDLLVFGFLQSSGCTRQELEVLGRELPVQAYWEADLEDELQTDGSQASRSFNQGRIEPDSESQEEIIHNIARHLAQIGDEAAHNIQPTLVRQLAAQFMNGSLSEEDKRNCLAKALDEVKTAFPRDMENDKAMLIMTMLLAKKVASHAPSLLRDVFHTTVNFINQNLFSYVRNLVRNEMD
As for B1, the binding result in test [1] is “no binding”.

B2: BIDmIII-3 (G94A) (other)
chain: B1 chain with G94A, A97M, A98D
Turning to B2, in test [2], the binding result was “no binding”.
